Assays:
[1] = molecular target: GSDMA; test: Flag IP with mass spectrometry (LFQ); conditions: SK-Mel-28 cells; read off a plot
[2] = molecular target: E-cadherin, endogenous in SK-Mel-28 cells; test: Flag IP with mass spectrometry (LFQ); conditions: read off a plot

- log10 ratio [1]: 2.2
- log10 ratio [2]: -2.5
Substance: Flag-CTNND1 WT, stably expressed in SK-Mel-28 cells (from UniProt O60716) C618S
